Here are results for one molecule from patent US20110274694A1 (JULIUS MAXIMILIANS UNIVERSITAET WUERZBURG, published 2011).

In the assay the target is T1, HA-tagged wild-type Erk2 (HA-Erk2, T188T or AA1-358) (mouse, UniProt P63085 1-358).
T1 construct: Mouse cDNA in a CMV expression plasmid, expressed in transfected cells; also called wt-Erk2; not shown: hemagglutinin (HA) tag
Description: co-precipitation of HA-tagged and Flag-tagged Erk2 after carbachol stimulation. On the procedure:
HEK293-cells were cultured in the absence or presence of carbachol (100 μM, 6 min) or UK14304 (1 μM, 10 min) before lysis. The inventors prepared ventricular tissue from mouse hearts derived from male 129SvEv (FIG. 1g,h), FVB/N wild-type (WT) or Erk2^T188-transgenic mice (1188T, T188D, T188S, T188A) (FVB/N background) without or after transverse aortic constriction (TAC, see Fig. legends for the duration of TAC) or carbachol-infusion. Control animals were strain-, age- and gender-matched. Lysates of ventricular tissue underwent sonification before immunoblot or immunoprecipitation assays.
FIG. 4 Activation of the entire MAPK-cascade is necessary for interaction of Gβγ with Erk1/2. […] (b) Gene silencing of Raf1 suppressed the carbachol-stimulated interaction of Erk1/2 with Gβ as assessed by co-immunoprecipitation with ERK1/2-specific antibodies (anti-ERK1/2). (c) Inhibition of Mek1/2-activity by PD98059 (50 μM) suppressed the carbachol-stimulated (CCH, 5 min) interaction of HA-Raf1 (Raf1) with Gβ as assessed by co-immunoprecipitation. […] (g, h) Interactions of HA-tagged wild-type Erk2 (AA1-358), truncated Erk2-mutants (AA1-318; AA22-358; AA22-318) and dimerization-deficient Erk2^Δ174-177 with Gβγ as assessed by co-immunoprecipition (g) and carbachol-stimulated inositol phosphate signaling (h) in HEK293-cells. […]

B1: Flag-Erk2^Δ174-177 (enzyme)
chain: MAAAAAAGPEMVRGQVFDVGPRYTNLSYIGEGAYGMVCSAYDNLNKVRVAIKKISPFEHQTYCQRTLREIKILLRFRHENIIGINDIIRAPTIEQMKDVYIVQDLMETDLYKLLKTQHLSNDHICYFLYQILRGLKYIHSANVLHRDLKPSNLLLNTTCDLKICDFGLARVADHTGFLTEYVATRWYRAPEIMLNSKGYTKSIDIWSVGCILAEMLSNRPIFPGKHYLDQLNHILGILGSPSQEDLNCIINLKARNYLLSLPHKNKVPWNRLFPNADSKALDLLDKMLTFNPHKRIEVEQALAHPYLEQYYDPSDEPIAEAPFKFDMELDDLPKEKLKELIFEETARFQPGYRS
notes: also called D174-177; dimerization-deficient Erk2^Δ174-177-mutant; not shown: Flag tag
Turning to B1, the binding result was “no binding”.
